Our source for the VWF73 FRET assay, ADAMTS13 enzymatic activity (K562 cells) and VWF73 FRET assay, ADAMTS13 enzymatic activity (iPSC-derived erythroid cells) values is patent US20220213462A1.

In the test the target is peptide VWF73 (FRET substrate encompassing the ADAMTS13 recognition site of von Willebrand factor) (UniProt P04275). The experiment in a line: cell-based or functional assay. The note with it: scale: µL of normal human plasma equivalent per 200,000 cells.
Chain of peptide VWF73 (FRET substrate encompassing the ADAMTS13 recognition site of von Willebrand factor) (P04275 1596-1668 limits assumed): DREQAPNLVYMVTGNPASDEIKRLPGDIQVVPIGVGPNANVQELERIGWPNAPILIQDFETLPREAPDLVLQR

As for “GPI-ADAMTS13 (AD5): first 745 amino acids of human ADAMTS13 fused to the DAF GPI anchor sequence (from UniProt Q76LX8 75-745) (enzyme)”, the VWF73 FRET assay, ADAMTS13 enzymatic activity (K562 cells) is 10 and the VWF73 FRET assay, ADAMTS13 enzymatic activity (iPSC-derived erythroid cells) was 10.
